Values quoted from earlier work, collected in article PMC7295915.
Blank lines part the entries; values can stand above or below the substance they belong to.

Key:
CD40L (Homo sapiens) = CD40L (Homo sapiens) (UniProt P29965)
ICAM-1 (Homo sapiens) = ICAM-1 (Homo sapiens) (UniProt P05362)
CD48 (Homo sapiens) = CD48 (Homo sapiens) (UniProt P09326)
CD80 (Homo sapiens) = CD80 (Homo sapiens) (UniProt P33681)
Sequence of CD80 (Homo sapiens) (P33681 35-242): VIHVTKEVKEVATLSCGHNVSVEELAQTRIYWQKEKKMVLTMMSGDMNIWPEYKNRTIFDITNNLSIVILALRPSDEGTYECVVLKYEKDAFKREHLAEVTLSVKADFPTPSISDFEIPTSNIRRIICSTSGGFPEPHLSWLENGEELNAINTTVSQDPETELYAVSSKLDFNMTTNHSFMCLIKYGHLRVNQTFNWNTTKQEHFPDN

Sequence of CD48 (Homo sapiens) (P09326 27-220): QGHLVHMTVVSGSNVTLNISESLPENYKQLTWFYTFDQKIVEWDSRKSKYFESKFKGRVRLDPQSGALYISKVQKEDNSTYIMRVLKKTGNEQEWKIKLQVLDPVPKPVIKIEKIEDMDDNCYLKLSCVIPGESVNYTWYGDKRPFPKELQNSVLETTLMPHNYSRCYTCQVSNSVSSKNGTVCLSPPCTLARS
Sequence of CD2 (P06729 25-209): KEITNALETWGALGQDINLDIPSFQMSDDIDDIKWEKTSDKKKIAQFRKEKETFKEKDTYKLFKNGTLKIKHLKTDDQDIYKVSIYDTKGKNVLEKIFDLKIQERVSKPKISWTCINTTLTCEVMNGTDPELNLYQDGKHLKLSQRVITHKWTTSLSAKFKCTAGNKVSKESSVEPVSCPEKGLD
Sequence of LFA-1 (P20701 26-1090): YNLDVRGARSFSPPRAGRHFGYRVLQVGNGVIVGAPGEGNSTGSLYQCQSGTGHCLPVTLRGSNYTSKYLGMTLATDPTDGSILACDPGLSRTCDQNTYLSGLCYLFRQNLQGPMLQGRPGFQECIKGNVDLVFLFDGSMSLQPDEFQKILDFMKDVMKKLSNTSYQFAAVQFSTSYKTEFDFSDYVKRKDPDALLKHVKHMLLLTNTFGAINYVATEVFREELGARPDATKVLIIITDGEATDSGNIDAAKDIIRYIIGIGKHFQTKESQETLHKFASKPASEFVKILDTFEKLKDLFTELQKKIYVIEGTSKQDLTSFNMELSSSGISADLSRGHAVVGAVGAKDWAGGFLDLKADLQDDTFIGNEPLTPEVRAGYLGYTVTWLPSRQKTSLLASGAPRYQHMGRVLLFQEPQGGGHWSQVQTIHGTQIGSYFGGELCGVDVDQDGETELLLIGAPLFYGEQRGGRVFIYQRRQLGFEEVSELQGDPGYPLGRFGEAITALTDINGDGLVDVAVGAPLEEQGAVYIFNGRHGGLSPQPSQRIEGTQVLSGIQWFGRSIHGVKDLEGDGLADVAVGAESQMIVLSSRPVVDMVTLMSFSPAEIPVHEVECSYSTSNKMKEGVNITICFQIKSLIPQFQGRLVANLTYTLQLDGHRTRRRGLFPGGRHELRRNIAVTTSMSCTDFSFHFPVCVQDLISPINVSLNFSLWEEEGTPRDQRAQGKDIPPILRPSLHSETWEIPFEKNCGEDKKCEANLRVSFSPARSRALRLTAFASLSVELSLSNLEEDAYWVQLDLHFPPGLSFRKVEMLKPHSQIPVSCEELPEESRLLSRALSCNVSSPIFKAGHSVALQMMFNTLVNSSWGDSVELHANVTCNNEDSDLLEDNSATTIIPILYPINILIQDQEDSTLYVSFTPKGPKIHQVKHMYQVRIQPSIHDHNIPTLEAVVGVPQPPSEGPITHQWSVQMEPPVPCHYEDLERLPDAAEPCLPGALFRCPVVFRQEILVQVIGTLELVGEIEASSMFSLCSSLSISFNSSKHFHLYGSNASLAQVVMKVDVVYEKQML
Sequence of LFA-1 (P05107 23-700, further chain): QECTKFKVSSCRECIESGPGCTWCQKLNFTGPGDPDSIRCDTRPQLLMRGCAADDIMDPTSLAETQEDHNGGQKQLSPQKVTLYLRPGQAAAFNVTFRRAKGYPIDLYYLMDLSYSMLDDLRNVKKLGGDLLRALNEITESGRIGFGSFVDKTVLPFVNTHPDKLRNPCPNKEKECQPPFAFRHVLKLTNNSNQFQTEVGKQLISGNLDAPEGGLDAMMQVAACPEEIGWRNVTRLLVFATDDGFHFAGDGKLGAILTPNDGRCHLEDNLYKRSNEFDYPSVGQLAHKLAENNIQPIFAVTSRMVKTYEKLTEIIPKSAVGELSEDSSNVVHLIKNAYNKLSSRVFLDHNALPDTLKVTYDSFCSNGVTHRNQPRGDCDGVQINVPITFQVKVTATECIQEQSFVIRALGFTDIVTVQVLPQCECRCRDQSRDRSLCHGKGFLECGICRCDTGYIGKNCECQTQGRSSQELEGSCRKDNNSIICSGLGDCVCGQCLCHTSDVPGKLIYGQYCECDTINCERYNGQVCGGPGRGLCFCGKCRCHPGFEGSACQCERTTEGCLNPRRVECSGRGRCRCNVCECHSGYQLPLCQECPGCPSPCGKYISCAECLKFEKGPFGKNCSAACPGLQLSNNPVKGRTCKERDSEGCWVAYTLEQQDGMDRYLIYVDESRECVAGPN
Sequence of CD40L (Homo sapiens) (P29965 113-261): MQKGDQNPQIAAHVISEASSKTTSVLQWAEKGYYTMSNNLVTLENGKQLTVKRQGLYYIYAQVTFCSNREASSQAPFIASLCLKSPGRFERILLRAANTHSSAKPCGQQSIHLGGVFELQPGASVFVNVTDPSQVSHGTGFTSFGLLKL
Sequence of ICAM-1 (Homo sapiens) (P05362 28-480): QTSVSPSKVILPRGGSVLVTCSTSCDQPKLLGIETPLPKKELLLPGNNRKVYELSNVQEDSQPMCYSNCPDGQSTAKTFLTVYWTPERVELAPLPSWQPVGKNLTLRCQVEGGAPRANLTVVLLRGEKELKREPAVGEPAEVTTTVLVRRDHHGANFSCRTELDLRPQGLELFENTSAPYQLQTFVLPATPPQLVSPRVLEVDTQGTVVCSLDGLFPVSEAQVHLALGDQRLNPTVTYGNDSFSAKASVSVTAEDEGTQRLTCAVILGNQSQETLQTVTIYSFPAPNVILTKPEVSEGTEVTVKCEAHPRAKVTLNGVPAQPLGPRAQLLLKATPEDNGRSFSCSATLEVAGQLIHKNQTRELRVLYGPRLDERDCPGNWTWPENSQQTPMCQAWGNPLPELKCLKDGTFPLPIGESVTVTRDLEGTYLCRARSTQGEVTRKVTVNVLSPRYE
Sequence of CD40 (P25942 21-277): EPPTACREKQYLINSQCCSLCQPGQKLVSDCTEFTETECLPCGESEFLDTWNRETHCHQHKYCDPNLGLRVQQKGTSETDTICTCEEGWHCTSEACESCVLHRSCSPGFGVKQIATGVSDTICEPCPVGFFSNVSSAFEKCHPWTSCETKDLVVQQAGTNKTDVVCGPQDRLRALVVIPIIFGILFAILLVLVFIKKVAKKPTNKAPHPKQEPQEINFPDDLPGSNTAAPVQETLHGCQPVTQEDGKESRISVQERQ

Kd (CD40L (Homo sapiens)): 200 nM
Substance: CD40 (from UniProt P25942)

Kd (ICAM-1 (Homo sapiens)): 500 nM
Substance: LFA-1 (from UniProt P20701)

Kd (CD48 (Homo sapiens)): 100000 nM
Substance: CD2 (from UniProt P06729)

Kd (CD80 (Homo sapiens)): 4000 nM
Substance: CD28 (from UniProt P10747)
